The results in this text go back to publication PMC2064262 (The Journal of Cell Biology, 2006).

This experiment addresses N-syndecan ectodomain IgG fusion protein (UniProt P33671 45-387, glycosylated (proteoglycan fragment with heparan sulfate chains)). Briefly: ELISA.

N-syndecan ectodomain IgG fusion protein, sequence (P33671 45-387): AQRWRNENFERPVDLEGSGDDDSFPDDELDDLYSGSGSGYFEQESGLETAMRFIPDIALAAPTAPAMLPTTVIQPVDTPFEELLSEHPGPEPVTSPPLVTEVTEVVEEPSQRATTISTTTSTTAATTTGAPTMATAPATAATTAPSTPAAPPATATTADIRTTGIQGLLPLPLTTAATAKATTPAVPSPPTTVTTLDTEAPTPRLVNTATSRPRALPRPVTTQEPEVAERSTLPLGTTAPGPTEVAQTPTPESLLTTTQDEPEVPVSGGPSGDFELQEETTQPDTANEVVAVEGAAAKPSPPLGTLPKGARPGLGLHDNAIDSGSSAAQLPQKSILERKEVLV

B1: heparin-binding EGF-like growth factor (HB-EGF), human recombinant (ligand, UniProt Q99075 63-148, looked up)
chain: DLQEADLDLLRVTLSSKPQALATPNKEEHGKRKKKGKGLGKKRDPCLRKYKDFCIHGECKYVKELRAPSCICHPGYHGERCHGLSL
What is called Kd is the constant that tells how readily two partners part at equilibrium. On to B1, for which the affinity, expressed as Kd, was 15 nM. This counts as double-digit nanomolar.

B2: heparin-binding growth-associated molecule (HB-GAM; pleiotrophin) (ligand, UniProt P63090 33-168, looked up)
chain: GKKEKPEKKVKKSDCGEWQWSVCVPTSGDCGLGTREGTRTGAECKQTMKTQRCKIPCNWKKQFGAECKYQFQAWGECDLNTALKTRTGSLKRALHNADCQKTVTISKPCGKLTKPKPQAESKKKKKEGKKQEKMLD
Turning to B2, binding was put at a Kd of 12 nM.
